Source: patent publication US6268347A, “Prosaposin-derived peptides” (Regents of the University of CA, priority 1999, dated 2001)
Where a SMILES comes first, the peptide text is derived from it. [ ]: non-standard residue; d: D form.

What was measured:
Chung model rats = assay: Tactile allodynia (von Frey 50% paw withdrawal threshold) in Chung model rats; assay type: in vivo, rat; conditions: any concentration tested, intrathecal
Description: The surgical procedure previously described by Kim and Chung, supra, 1992, was performed on male Sprague-Dawley rats weighing 120 to 150 grams to induce an allodynic state. Briefly, the rats were anesthetized with halothane; subsequently, the left L-5 and L-6 spinal nerves were isolated adjacent to the vertebral column and ligated with 6.0 silk suture distal to the dorsal root ganglion. After a ten to fourteen day post operative recovery period, a spinal catheter was introduced. Five days following the second surgery, intrathecal drug administration was accomplished using a gear driven micro-injection syringe connected to a spinal catheter inserted through the foramen magnum. Prior to testing, the rats were placed in clear plastic wire meshed cages and allowed to accommodate.
To assess the 50% mechanical threshold for paw withdrawal, a von Frey hair was applied to the hind foot avoiding the foot pad. Each of the von Frey hairs, which are calibrated to bend at increasing log forces, were pressed perpendicularly to the foot with sufficient force to cause slight bending for a duration of approximately six to eight seconds. A positive response was noted if the foot was sharply withdrawn. […] The X-axis indicates the time after the injection at which point the hypersensitivity to pressure on the foot pad was measured.

neuroblastoma cells = conditions: cited from earlier work
neurite outgrowth = conditions: cited from earlier work
[1] = system: choline acetyltransferase activity; conditions: cited from earlier work

Row | Molecule | side effects such as sedation (Chung model rats) | cell death in neuroblastoma cells (neuroblastoma cells) | neurite outgrowth (neurite outgrowth) | choline acetyltransferase activity [1]
1 | CC[C@H](C)[C@H](NC(=O)[C@H](CCC(=O)O)NC(=O)[C@H](CCCCN)NC(=O)[C@H](CCC(=O)O)NC(=O)[C@@H](NC(=O)[C@H](CCCCN)NC(=O)[C@H](CC(N)=O)NC(=O)[C@H](CC(N)=O)NC(=O)[C@H](CC(=O)O)NC(=O)[C@@H](NC(=O)[C@H](CC(C)C)NC(=O)[C@H](CCCCN)NC(=O)[C@@H](NC(=O)[C@@H](NC(=O)[C@H](CCC(=O)O)NC(=O)[C@H](CCCCN)NC(=O)[C@@H](NC(=O)[C@H](CC(C)C)NC(=O)[C@H](Cc1ccccc1)NC(=O)[C@H](CCC(=O)O)NC(=O)[C@@H](N)CS)C(C)C)C(C)C)[C@@H](C)O)[C@@H](C)CC)[C@@H](C)O)C(=O)N[C@@H](CC(C)C)C(=O)O [SEQ ID NO: 1] (H-CEFLVKEVTKLIDNNKTEKEIL-OH) | No significant side effects such as sedation were observed | – | – | –
2 | CC[C@H](C)[C@H](NC(=O)[C@H](CCC(=O)O)NC(=O)[C@H](CCC(=O)O)NC(=O)[C@@H](NC(=O)[C@H](C)NC(=O)[C@H](CC(N)=O)NC(=O)[C@H](CC(N)=O)NC(=O)[C@H](CC(=O)O)NC(=O)[C@@H](NC(=O)[C@H](CC(C)C)NC(=O)[C@@H](C)NC(=O)[C@@H](N)[C@@H](C)O)[C@@H](C)CC)[C@@H](C)O)C(=O)N[C@@H](CC(C)C)C(=O)N[C@@H](Cc1ccc(O)cc1)C(=O)O [SEQ ID NO: 2, TXLIDNNATEEILY] (H-T[dA]LIDNNATEEILY-OH) | No side effects were observed | – | – | –
3 | Prosaposin: 517 amino acid protein, precursor of four sphingolipid activator proteins (saposins A, B, C, D) (protein, UniProt P07602 1-524, looked up, full-length) MYALFLLASLLGAALAGPVLGLKECTRGSAVWCQNVKTASDCGAVKHCLQTVWNKPTVKSLPCDICKDVVTAAGDMLKDNATEEEILVYLEKTCDWLPKPNMSASCKEIVDSYLPVILDIIKGEMSRPGEVCSALNLCESLQKHLAELNHQKQLESNKIPELDMTEVVAPFMANIPLLLYPQDGPRSKPQPKDNGDVCQDCIQMVTDIQTAVRTNSTFVQALVEHVKEECDRLGPGMADICKNYISQYSEIAIQMMMHMQPKEICALVGFCDEVKEMPMQTLVPAKVASKNVIPALELVEPIKKHEVPAKSDVYCEVCEFLVKEVTKLIDNNKTEKEILDAFDKMCSKLPKSLSEECQEVVDTYGSSILSILLEEVSPELVCSMLHLCSGTRLPALTVHVTQPKDGGFCEVCKKLVGYLDRNLEKNSTKQEILAALEKGCSFLPDPYQKQCDQFVAEYEPVLIEILVEVMDPSFVCLKIGACPSAHKPLLGTEKCIWGPSYWCQNTETAAQCNAVEHCKRHVWN | – | prevents cell death | stimulates motor neurite outgrowth in vitro and in vivo | increases choline acetyltransferase activity
